# Laboratory results taken from paper PMC4866825, “The GIRK1 subunit potentiates G protein activation of cardiac GIRK1/4 hetero-tetramers” (eLife, 2016).
# T1: GIRK1-His (human full-length GIRK1 with C-terminal PreScission site, eGFP and deca-histidine tag) (human, UniProt P48549 1-501)
# T1 construct: G protein gated inward rectifier K+ channel subunit GIRK1, human, full length; also called His-tagged GIRK1; GIRK1 subunit; source: HEK293S GnTI- cells, BacMam transduced together with GIRK4-1D4 (1:1), solubilized in DM; not shown: eGFP, C-terminal, kept; His10, C-terminal, kept
# T1 sequence (looked up): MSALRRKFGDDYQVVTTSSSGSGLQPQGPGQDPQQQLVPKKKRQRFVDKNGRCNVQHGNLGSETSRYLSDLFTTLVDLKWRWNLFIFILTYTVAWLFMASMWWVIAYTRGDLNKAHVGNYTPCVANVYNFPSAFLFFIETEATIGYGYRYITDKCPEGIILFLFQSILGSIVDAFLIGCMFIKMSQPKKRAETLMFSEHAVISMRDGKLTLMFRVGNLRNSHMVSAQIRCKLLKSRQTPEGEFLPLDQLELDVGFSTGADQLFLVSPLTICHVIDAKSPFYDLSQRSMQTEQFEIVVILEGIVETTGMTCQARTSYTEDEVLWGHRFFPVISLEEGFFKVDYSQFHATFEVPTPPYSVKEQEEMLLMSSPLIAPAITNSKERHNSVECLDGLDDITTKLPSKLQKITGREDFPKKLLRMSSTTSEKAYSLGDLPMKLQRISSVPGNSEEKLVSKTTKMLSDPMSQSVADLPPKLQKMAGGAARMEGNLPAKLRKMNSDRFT
# Assays:
# [1] = target: GIRK1(N217D)/4 hetero-tetramers, purified and reconstituted into proteoliposomes and planar lipid bilayers (human) (UniProt P48549); conditions: scale: not given
# [2] = target: GIRK1/4 hetero-tetramers, purified and reconstituted into proteoliposomes and planar lipid bilayers (human) (UniProt P48549)
# [3] = target: GIRK4 homo-tetramers, purified and reconstituted into proteoliposomes and planar lipid bilayers (human) (UniProt P48544)
# [4] = target: GIRK4 homo-tetramers, purified and reconstituted into proteoliposomes and planar lipid bilayers (human) (UniProt P48544); remark: listed apart in the source
# [5] = target: the molecule itself; assay: SEC; fluorescent size-exclusion chromatography (FSEC) of solubilized HEK293T cell lysate, Superose 6 10/300 GL; 50 mM HEPES-KOH pH 7.35, 150 mM KCl, 4% DM for solubilization; GFP fluorescence followed
# [6] = target: T1, GIRK1-His (human full-length GIRK1 with …); assay: SEC; purified GIRK1/4 after PreScission cleavage of eGFP and tags, Superose 6 10/300 GL in 20 mM Tris-HCl pH 7.5, 150 mM KCl, 0.2% DM, 20 mM DTT, 1 mM EDTA; fractions of the peak run on 12% SDS-PAGE, band intensities compared; conditions: both partners purified
molecule,measurement,setting,value
soluble Gβγ with a deca-histidine-tag instead of its physiological lipid anchor (sGβγ-His10) (from UniProt P62873 1-340; P59768 1-71) (complex),"Kdb from a fit of the equilibrium gating model (b and θ4,4 fixed) to normalized planar lipid bilayer currents against Ni-NTA-lipid mole fraction at 0, 8 and 32 mM Na+",[1],0.0024
same,"b, cooperativity factor for Gβγ binding, from the fit of the equilibrium gating model to normalized planar lipid bilayer currents",[2],0.6
same,"Kdb from a fit of the equilibrium gating model (two Na+ sites permanently occupied) to normalized planar lipid bilayer currents against Ni-NTA-lipid mole fraction at 0, 8 and 32 mM Na+",[2]; scale: not given,0.004
same,"b, cooperativity factor for Gβγ binding, from the fit of the equilibrium gating model to normalized planar lipid bilayer currents",[3],0.6
same,"Kdb from a fit of the 25-state equilibrium gating model to normalized planar lipid bilayer currents against Ni-NTA-lipid mole fraction (membrane sGβγ-His10 density) at 0, 8 and 32 mM Na+",[3]; scale: not given,0.004
same,"normalized GIRK4 current in planar lipid bilayers at 0.001 Ni-NTA mole fraction, 0 to 32 mM Na+ (normalized current)",[4],0.34
"GIRK1 subunit fused to GFP (GIRK1-His10-pEG BacMam construct) (natural protein, human, UniProt P48549 1-501, looked up, G protein gated inward rectifier K+ channel subunit GIRK1, human, full length; A PreScission protease cleavage site stands between GIRK1 and eGFP-His10; not cut for FSEC; also called GIRK1 homo-tetramers; source: HEK293T, transiently transfected, in solubilized cell lysate (4% DM); not shown: eGFP, C-terminal, kept; His10, C-terminal, kept) MSALRRKFGDDYQVVTTSSSGSGLQPQGPGQDPQQQLVPKKKRQRFVDKNGRCNVQHGNLGSETSRYLSDLFTTLVDLKWRWNLFIFILTYTVAWLFMASMWWVIAYTRGDLNKAHVGNYTPCVANVYNFPSAFLFFIETEATIGYGYRYITDKCPEGIILFLFQSILGSIVDAFLIGCMFIKMSQPKKRAETLMFSEHAVISMRDGKLTLMFRVGNLRNSHMVSAQIRCKLLKSRQTPEGEFLPLDQLELDVGFSTGADQLFLVSPLTICHVIDAKSPFYDLSQRSMQTEQFEIVVILEGIVETTGMTCQARTSYTEDEVLWGHRFFPVISLEEGFFKVDYSQFHATFEVPTPPYSVKEQEEMLLMSSPLIAPAITNSKERHNSVECLDGLDDITTKLPSKLQKITGREDFPKKLLRMSSTTSEKAYSLGDLPMKLQRISSVPGNSEEKLVSKTTKMLSDPMSQSVADLPPKLQKMAGGAARMEGNLPAKLRKMNSDRFT",stoichiometry N,[5],4 subunits
"GIRK4 subunit fused to GFP (GIRK4-1D4-pEG BacMam construct) (natural protein, human, UniProt P48544 1-419, looked up, G protein gated inward rectifier K+ channel subunit GIRK4, human, full length; A PreScission protease cleavage site stands between GIRK4 and eGFP-1D4; not cut for FSEC; also called GIRK4 homo-tetramers; source: HEK293T, transiently transfected, in solubilized cell lysate (4% DM); not shown: eGFP, C-terminal, kept; 1D4 peptide, C-terminal, kept) MAGDSRNAMNQDMEIGVTPWDPKKIPKQARDYVPIATDRTRLLAEGKKPRQRYMEKSGKCNVHHGNVQETYRYLSDLFTTLVDLKWRFNLLVFTMVYTVTWLFFGFIWWLIAYIRGDLDHVGDQEWIPCVENLSGFVSAFLFSIETETTIGYGFRVITEKCPEGIILLLVQAILGSIVNAFMVGCMFVKISQPKKRAETLMFSNNAVISMRDEKLCLMFRVGDLRNSHIVEASIRAKLIKSRQTKEGEFIPLNQTDINVGFDTGDDRLFLVSPLIISHEINQKSPFWEMSQAQLHQEEFEVVVILEGMVEATGMTCQARSSYMDTEVLWGHRFTPVLTLEKGFYEVDYNTFHDTYETNTPSCCAKELAEMKREGRLLQYLPSPPLLGGCAEAGLDAEAEQNEEDEPKGLGGSREARGSV",stoichiometry N,[5],4 subunits
"GIRK4-1D4 (human full-length GIRK4 with C-terminal PreScission site, eGFP and 1D4 peptide tag) (natural protein, UniProt P48544 1-419, looked up, G protein gated inward rectifier K+ channel subunit GIRK4, human, full length; also called 1D4-tagged GIRK4; GIRK4 subunit; source: HEK293S GnTI- cells, BacMam transduced together with GIRK1-His (1:1), solubilized in DM; not shown: eGFP, C-terminal, kept; 1D4 peptide, C-terminal, kept) MAGDSRNAMNQDMEIGVTPWDPKKIPKQARDYVPIATDRTRLLAEGKKPRQRYMEKSGKCNVHHGNVQETYRYLSDLFTTLVDLKWRFNLLVFTMVYTVTWLFFGFIWWLIAYIRGDLDHVGDQEWIPCVENLSGFVSAFLFSIETETTIGYGFRVITEKCPEGIILLLVQAILGSIVNAFMVGCMFVKISQPKKRAETLMFSNNAVISMRDEKLCLMFRVGDLRNSHIVEASIRAKLIKSRQTKEGEFIPLNQTDINVGFDTGDDRLFLVSPLIISHEINQKSPFWEMSQAQLHQEEFEVVVILEGMVEATGMTCQARSSYMDTEVLWGHRFTPVLTLEKGFYEVDYNTFHDTYETNTPSCCAKELAEMKREGRLLQYLPSPPLLGGCAEAGLDAEAEQNEEDEPKGLGGSREARGSV",stoichiometry N,[6],1 GIRK4 per GIRK1 (2:2 in the tetramer)
